From patent publication US7244563B2, “Genes for plant fatty acid modifying enzymes associated with conjugated double bond formation” (E. I. du Pont de Nemours and Company, priority 2002, dated 2007)

Tests used:
soybean seeds = test: Fatty acid composition of seeds of regenerated transgenic soybean plants; type: in vivo; settings: for Eleostearic / Other / 16:0 / 18:0 / 18:1 / 18:2 / 18:3 / α-Parinaric: single soybean seed; for Eleostearic: includes cis-trans isomers of α-eleostearic acid (<1.5 wt %); for Other: primarily 20:0, 20:1, 22:0, and 22:1; for 16:0 / 18:0 / 18:1 / 18:2 / 18:3 / α-Parinaric: % of total oil weight
Description: To examine the ability of the Momordica fatty acid modifying enzyme associated with conjugated double bond synthesis to function in seeds of crop plants, transgenic soybean embryos expressing this enzyme were regenerated into plants. The fatty acid compositions of segregating seeds from these plants were examined by GC and GC-MS as described in Example 4

[1] = tested on: Saccharomyces cerevisiae INVSc1 cells; test: Expression in Saccharomyces cerevisiae, accumulation of fatty acids with conjugated double bonds; type: cell-based; settings: 4 days at 16°
Description: The Impatiens balsamina clone ImpH8Fad2 was partially digested with the restriction enzymes EcoRI and XhoI. A resulting 1.5 kb DNA fragment containing the entire cDNA insert was purified by agarose gel electrophoresis. The cDNA insert was obtained from agarose gel by digestion with GELase™ (Epicentre Technologies) according to the manufacturer's instructions, ethanol precipitated, dried and resuspended in 20 μL of water. The purified cDNA was ligated into the EcoRI and XhoI sites of the Saccharomyces cerevisiae expression vector pYES2 (Invitrogen) using T4 DNA ligase (New England Biolabs). The resulting plasmid pYes2/ImpH8Fad2 was introduced into Saccharomyces cerevisiae INVSc1 (=Invitrogen)cells by lithium acetate-mediated transformation [Sherman F, Fink G R, Hicks J B, Methods in Yeast Genetics: A Laboratory Course Manual, Cold Spring Harbor Lab. Press, Plainview, N.Y. (1987)]. Transformed cells were selected by their ability to grow in the absence of uracil. Individual colonies of transformed cells were then grown for 2 days at 30° in growth media lacking uracil [0.17% (w/v) yeast nitrogen base without amino acids (Difco), 0.5% (w/v) ammonium sulfate, and 0.18% SC-URA (Bio101)] supplemented with glycerol and glucose to a final concentration of 5% (v/v) and 0.5% (w/v), respectively. Cells were then washed twice in the growth media described above that was supplemented instead with galactose to a final concentration of 2% (w/v). The washed cells were then diluted to O.D.600≈0.2 in the galactose-containing growth media that also contained Tergitol NP-40 (Sigma) at a concentration of 0.2% (w/v). Aliquots of these cells were grown without exogenous fatty acids or with the addition of either linoleic acid (18:2Δ^9cis,12cis) or α-linolenic acid (18:3Δ^9cis,12cis,15cis) at a final concentration of 2 mM. Following 4 days of growth at 16°, the S. cerevisiae cells were harvested and examined for the accumulation of fatty acids containing conjugated double bonds as described in Example 4. In cells grown in media containing linoleic acid, α-eleostearic acid was detected in amounts of up to 0.6% (w/w) of the total fatty acids.

[2] = media containing linoleic acid 2 mM
[3] = media containing α-linolenic acid 2 mM

B1: MomFad2: Momordica charantia fatty acid modifying enzyme associated with conjugated double bond formation, SEQ ID NO:4, cDNA SEQ ID NO:3 (protein, listed as Momordica charantia)
chain: MGGRGAIGVLRNGGGPKKKMGPGQGLGPGERITHARPPFSISQIKKAIPPHCFQRSLRRSFSYLLSDIALVSAFYYVADTYFHRLPHPLLHYLAWPVYWFCQGAVLTGMWGIAHDCGHHAFSDYQLVDDVVGFLIHSLVFVPYFSFKISHRRHHSNTSSVDRDEVFVPKPKAKMPWYFKYLTNPPARVFIIFITLTLGWPMYLTFNISGRYYGRFTSHFDPNSPIFSPKERVLVHISNAGLVATGYLLYRIAMAKGVGWLIRLYGVPLIVLNACVVLITALQHTHPSFPYYDSTEWDWLRGNLVTVDRDYGPIMNRVFHHITDTHVVHHLFPSMPHYNGKEATVAAKRILGEYYQFDGTPIWKAAWREFRECVYVEPDEDDGATSGSSSKGVFWYHNKL
Eleostearic (soybean seeds; Line 1): 13.9 Weight %
Other (soybean seeds; Line 1): <2.0 Weight %
Eleostearic (soybean seeds; Line 2): 13.4 Weight %
Other (soybean seeds; Line 2): <2.2 Weight %
Eleostearic (soybean seeds; Line 3): 11.6 Weight %
Other (soybean seeds; Line 3): <1.5 Weight %
16:0 (soybean seeds; transgenic Line 1): 8.8 Weight %
18:0 (soybean seeds; transgenic Line 1): 3.6 Weight %
18:1 (soybean seeds; transgenic Line 1): 44.5 Weight %
18:2 (soybean seeds; transgenic Line 1): 25.7 Weight %
18:3 (soybean seeds; transgenic Line 1): 1.0 Weight %
α-Parinaric (soybean seeds; transgenic Line 1): 0.5 Weight %
16:0 (soybean seeds; transgenic Line 2): 8.4 Weight %
18:0 (soybean seeds; transgenic Line 2): 3.5 Weight %
18:1 (soybean seeds; transgenic Line 2): 48.9 Weight %
18:2 (soybean seeds; transgenic Line 2): 22.3 Weight %
18:3 (soybean seeds; transgenic Line 2): 0.7 Weight %
α-Parinaric (soybean seeds; transgenic Line 2): 0.4 Weight %
16:0 (soybean seeds; transgenic Line 3): 9.7 Weight %
18:0 (soybean seeds; transgenic Line 3): 3.8 Weight %
18:1 (soybean seeds; transgenic Line 3): 47.2 Weight %
18:2 (soybean seeds; transgenic Line 3): 24.7 Weight %
18:3 (soybean seeds; transgenic Line 3): 1.0 Weight %
α-Parinaric (soybean seeds; transgenic Line 3): 0.5 Weight %
α-eleostearic acid of the total fatty acids (soybean seeds; transgenic soybean seeds): more than 13%
α-parinaric acid of the total fatty acids (soybean seeds; transgenic soybean seeds): approximately 0.5%
oleic acid (18:1) content of the total fatty acids (soybean seeds; transgenic soybean seeds, about 18 wt % in wild-type): ~50 wt %
linolenic acid (18:3) content of the total fatty acids (soybean seeds; transgenic soybean seeds, nearly 9 wt % in wild-type): about 1 wt %

B2: ImpFad2: Impatiens balsamina fatty acid modifying enzyme associated with conjugated double bond formation, SEQ ID NO:2, cDNA SEQ ID NO:1 (protein, listed as Impatiens balsamina)
chain: MGEVGPTNRTKTKLDKQQESENRVPHEPPPFTLSDLKKAIPPHCFERSLVKSFYHVIHDIIILSFFYYVAANYIPMLPQNLRYVAWPIYWAIQGCVQLGILVLGHECGHHAFSDYQWVDDMVGFVLHSSQLIPYFSWKHSHRRHHSNTASIERDEVYPPAYKNDLPWFAKYLRNPVGRFLMIFGALLFGWPSYLLFNANGRLYDRFASHYDPQSPIFNNRERLQVIASDVGLVFAYFVLYKIALAKGFVWLICVYGVPYVILNGLIVLITFLQHTHPNLPRYDLSEWDWLRGALSTVDRDYGMLNKVFHNVTDTHLVHHLFTTMPHYRAKEATEVIKPILGDYYKFDDTPFLKALWKDMGKCIYVESDVPGKNKGVYWYNNDI
α-eleostearic acid of the total fatty acids [1, 2]: up to 0.6 % (w/w)
α-parinaric acid detection [1, 2]: no α-parinaric acid was detected
α-eleostearic acid detection [1, 3]: no α-eleostearic acid was detected
α-parinaric acid of the total fatty acids [1, 3]: up to 0.9 % (w/w)
